For test [1], the target named is human CD3 (on human Pan-T cells or donor PBMC) (human) (UniProt P07766). The experiment in a line: cell-based or functional assay.
Test [2] concerns the target human CD3 (on the surface of Jurkat wild-type cells and of human Pan T cells) (human) (UniProt P07766). The experiment in a line: flow cytometry, isotype control antibody on human Pan T cells. Background: In flow cytometry, cells or beads pass a laser one at a time.
For test [3] the target is unchanged. The experiment in a line: flow cytometry, isotype control antibody on Jurkat WT cells.
For test [4], the target named is RT3-T3.5 (TCR-KO) cells. The test is described as follows: flow cytometry, isotype control antibody on RT3-T3.5 (TCR-KO) negative control cells.
For test [5], the target named is CD33 on KILR-HL60 cells (UniProt P20138). The test is described as follows: flow cytometry on KILR-HL60 (CD33 expressing) cells, antibody at 10 ug/ml.
For test [6], the target named is Jurkat TCRb knockout cells. The test is described as follows: flow cytometry on Jurkat KO (TCRb knockout) cells, negative control, antibody at 10 ug/ml.
Test [7] deals with human CD3 (TCR/CD3 complex on the cell surface) (human) (UniProt P07766). The test is described as follows: flow cytometry, Jurkat WT cells, 1 ug/mL.
Test [8] shares this target. The experiment in a line: flow cytometry, gMFI Jurkat WT over Jurkat TCRb KO, 1 ug/mL.
The target in test [9] is Jurkat TCRb knockout cells. The experiment in a line: flow cytometry on Jurkat KO (TCRb knockout) cells, negative control, antibody at 1 ug/ml.
Test [10] deals with CD3 on Jurkat wild-type cells (UniProt P07766). The test is described as follows: flow cytometry on Jurkat WT cells, antibody at 10 ug/ml.
Test [11] has as its target human CD3 (TCR/CD3 complex on the cell surface) (human) (UniProt P07766). The test is described as follows: flow cytometry, Pan-T cells, 10 ug/mL.
For test [12], the target named is CD3 on Jurkat wild-type cells (UniProt P07766). The experiment in a line: flow cytometry on Jurkat WT cells, antibody at 1 ug/ml.
The target in test [13] is human CD3 (TCR/CD3 complex on the cell surface) (human) (UniProt P07766). The experiment in a line: flow cytometry, Pan-T cells, 1 ug/mL.
The target of test [14] is Jurkat TCRb knockout cells. The experiment in a line: flow cytometry, Jurkat KO (TCRb knockout) cells, negative control, 1 ug/mL.
Test [15] deals with human CD3 (TCR/CD3 complex on the cell surface) (human) (UniProt P07766). The experiment in a line: flow cytometry, gMFI Jurkat WT over Jurkat TCRb KO, 10 ug/mL.
The target in test [16] is Jurkat TCRb knockout cells. The test is described as follows: flow cytometry, Jurkat KO (TCRb knockout) cells, negative control, 10 ug/mL.
The target in test [17] is human CD3 (TCR/CD3 complex on the cell surface) (human) (UniProt P07766). The experiment in a line: flow cytometry, Jurkat WT cells, 10 ug/mL.
In test [18] the target is CD33 on KILR-HL60 cells (UniProt P20138). The test is described as follows: flow cytometry on KILR-HL60 (CD33 expressing) cells, antibody at 1 ug/ml.
Test [19] has as its target RT3-T3.5 (TCR-KO) cells. The test is described as follows: flow cytometry, control antibody on RT3-T3.5 (TCR-KO) negative control cells.
Test [20] concerns the target human CD3 (on the surface of Jurkat wild-type cells and of human Pan T cells) (human) (UniProt P07766). The experiment in a line: flow cytometry, control antibody on human Pan T cells.
Test [21] shares this target. The test is described as follows: flow cytometry, control antibody on Jurkat WT cells.

CD3 on Jurkat wild-type cells, sequence (P07766 23-207, chain 1 of 3): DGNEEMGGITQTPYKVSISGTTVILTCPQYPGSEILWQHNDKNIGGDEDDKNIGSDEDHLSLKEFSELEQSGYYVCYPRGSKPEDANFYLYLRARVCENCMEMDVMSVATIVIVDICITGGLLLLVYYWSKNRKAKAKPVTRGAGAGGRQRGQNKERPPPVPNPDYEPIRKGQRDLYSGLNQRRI
CD3 on Jurkat wild-type cells, sequence (P04234 22-171, chain 2 of 3, further chain): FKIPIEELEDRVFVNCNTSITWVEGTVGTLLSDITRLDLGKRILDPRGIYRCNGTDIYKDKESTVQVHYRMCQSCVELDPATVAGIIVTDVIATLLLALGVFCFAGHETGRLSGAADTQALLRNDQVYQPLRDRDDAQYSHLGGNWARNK
CD3 on Jurkat wild-type cells, sequence (P09693 23-182, chain 3 of 3, further chain): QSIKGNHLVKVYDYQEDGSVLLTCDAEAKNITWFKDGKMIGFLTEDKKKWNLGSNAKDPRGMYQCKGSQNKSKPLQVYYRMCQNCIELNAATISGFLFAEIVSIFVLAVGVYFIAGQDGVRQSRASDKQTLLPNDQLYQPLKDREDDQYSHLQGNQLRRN
human CD3 (on human Pan-T cells or donor PBMC) (human), sequence (P07766 23-207, chain 1 of 4): as the sequence (P07766 23-207, chain 1 of 3) above
human CD3 (on human Pan-T cells or donor PBMC) (human), sequence (P04234 22-171, chain 2 of 4, further chain): as the sequence (P04234 22-171, chain 2 of 3, further chain) above
human CD3 (on human Pan-T cells or donor PBMC) (human), sequence (P09693 23-182, chain 3 of 4, further chain): as the sequence (P09693 23-182, chain 3 of 3, further chain) above
human CD3 (on human Pan-T cells or donor PBMC) (human), sequence (P20963 22-164, chain 4 of 4, further chain): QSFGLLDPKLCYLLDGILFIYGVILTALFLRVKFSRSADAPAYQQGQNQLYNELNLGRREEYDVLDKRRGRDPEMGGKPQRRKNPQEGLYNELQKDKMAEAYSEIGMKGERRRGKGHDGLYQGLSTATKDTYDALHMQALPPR
human CD3 (on the surface of Jurkat wild-type cells and of human Pan T cells) (human), sequence (P07766 23-207, chain 1 of 4): as the sequence (P07766 23-207, chain 1 of 3) above
human CD3 (on the surface of Jurkat wild-type cells and of human Pan T cells) (human), sequence (P09693 23-182, chain 2 of 4, further chain): as the sequence (P09693 23-182, chain 3 of 3, further chain) above
human CD3 (on the surface of Jurkat wild-type cells and of human Pan T cells) (human), sequence (P04234 22-171, chain 3 of 4, further chain): as the sequence (P04234 22-171, chain 2 of 3, further chain) above
human CD3 (on the surface of Jurkat wild-type cells and of human Pan T cells) (human), sequence (P20963 22-164, chain 4 of 4, further chain): as the sequence (P20963 22-164, chain 4 of 4, further chain) above
human CD3 (TCR/CD3 complex on the cell surface) (human), sequence (P07766 23-207, chain 1 of 4): as the sequence (P07766 23-207, chain 1 of 3) above
human CD3 (TCR/CD3 complex on the cell surface) (human), sequence (P09693 23-182, chain 2 of 4, further chain): as the sequence (P09693 23-182, chain 3 of 3, further chain) above
human CD3 (TCR/CD3 complex on the cell surface) (human), sequence (P04234 22-171, chain 3 of 4, further chain): as the sequence (P04234 22-171, chain 2 of 3, further chain) above
human CD3 (TCR/CD3 complex on the cell surface) (human), sequence (P20963 22-164, chain 4 of 4, further chain): as the sequence (P20963 22-164, chain 4 of 4, further chain) above
CD33 on KILR-HL60 cells, sequence (P20138 18-364 limits assumed): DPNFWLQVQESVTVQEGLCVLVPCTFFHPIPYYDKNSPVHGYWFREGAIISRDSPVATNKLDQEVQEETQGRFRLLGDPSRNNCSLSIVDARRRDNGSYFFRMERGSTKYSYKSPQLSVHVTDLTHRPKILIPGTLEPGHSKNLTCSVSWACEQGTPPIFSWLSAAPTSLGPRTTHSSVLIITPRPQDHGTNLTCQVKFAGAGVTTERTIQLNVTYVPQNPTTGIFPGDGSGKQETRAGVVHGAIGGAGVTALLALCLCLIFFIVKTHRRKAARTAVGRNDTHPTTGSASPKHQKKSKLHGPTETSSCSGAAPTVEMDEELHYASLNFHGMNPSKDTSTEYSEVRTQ
Gemtuzumab (antibody), sequence (HC): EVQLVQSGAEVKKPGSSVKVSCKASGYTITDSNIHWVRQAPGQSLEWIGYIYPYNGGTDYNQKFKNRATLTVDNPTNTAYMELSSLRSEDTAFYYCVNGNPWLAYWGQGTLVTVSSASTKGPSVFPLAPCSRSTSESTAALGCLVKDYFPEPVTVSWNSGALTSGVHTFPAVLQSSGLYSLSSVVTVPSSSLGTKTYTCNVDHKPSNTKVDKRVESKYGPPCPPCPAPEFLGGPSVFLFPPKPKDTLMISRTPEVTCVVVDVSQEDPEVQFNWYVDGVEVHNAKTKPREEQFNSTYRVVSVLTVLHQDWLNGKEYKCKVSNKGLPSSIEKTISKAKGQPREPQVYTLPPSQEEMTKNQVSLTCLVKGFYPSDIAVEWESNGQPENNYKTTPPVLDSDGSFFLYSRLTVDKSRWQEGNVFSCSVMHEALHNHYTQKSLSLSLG
Gemtuzumab (antibody), sequence (LC): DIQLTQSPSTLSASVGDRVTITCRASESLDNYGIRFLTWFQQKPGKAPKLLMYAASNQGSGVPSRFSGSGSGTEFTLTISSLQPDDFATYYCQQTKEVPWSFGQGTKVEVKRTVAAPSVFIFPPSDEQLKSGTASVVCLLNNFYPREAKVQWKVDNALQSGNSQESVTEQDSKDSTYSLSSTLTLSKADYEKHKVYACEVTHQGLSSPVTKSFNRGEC

Turning to Gemtuzumab (antibody), in test [1], the Cytokine Release Assay (IFNγ), Donor 0, gMFI max was found to be 5340 gMFI; the Cytokine Release Assay (IFNγ), Donor 1, gMFI max stood at 4630 gMFI; the Cytokine Release Assay (IFNγ), Donor 2, gMFI max was 3580 gMFI; the Cytokine Release Assay (IFNγ), Donor 3, gMFI max turned out to be 4480 gMFI.

For Isotype Control (antibody), the values for the gMFI (in test [2]; in test [3]; with RT3-T3.5 (TCR-KO) cells [4]) were 4370 gMFI, 1710 gMFI and 1820 gMFI, respectively.

OKT3 (antibody): the flow cytometry signal came to 11600 with CD33 on KILR-HL60 cells [5]; 3680 in test [6]; 5180 in test [9]; 35800 in test [10]; 82100 in test [12]; 14800 with CD33 on KILR-HL60 cells [18]. The gMFI in test [7] was found to be 54000 gMFI; in test [11], 394000 gMFI; in test [13], 603000 gMFI; in [14], 4900 gMFI; in [16], 4070 gMFI; in [17] it was 45200 gMFI. For the same substance, the gMFI with RT3-T3.5 (TCR-KO) cells [19] is 4220 gMFI; in test [20], 300000 gMFI; in test [21], 72300 gMFI. For the same substance, the Jurkat WT/KO (Fold) in test [8] worked out at 11 fold; in [15], 11.1 fold. The % Positive in test [11] is 99.9%; in test [13], 99.6%.

On to SP34 (antibody), for which the gMFI was determined as 7160 gMFI with RT3-T3.5 (TCR-KO) cells [19], 333000 gMFI in test [20] and 114000 gMFI in test [21].

With UCHT1 (antibody), the values for the gMFI (in the test with RT3-T3.5 (TCR-KO) cells [19]; in test [20]; in [21]) were 5410 gMFI, 359000 gMFI and 102000 gMFI, respectively.

On to hIgG1 (antibody), for which the flow cytometry signal was determined as 30200 with CD33 on KILR-HL60 cells [5]; 2620 in [6]; 2830 in test [9]; 2390 in test [10]; 2700 in test [12]; 34300 with CD33 on KILR-HL60 cells [18]. Also, the gMFI was 1770 gMFI in test [7]; 1780 gMFI in test [11]; 1860 gMFI in test [13]; 2020 gMFI in [14]; 1860 gMFI in [16]; 1740 gMFI in [17]. Besides, the Jurkat WT/KO (Fold) in test [8] and in test [15] was 0.9 fold each time. The % Positive in test [11] and in test [13] was 0.8% throughout.
